The source of these data is patent US20240344138A1, “TARGETED THERAPIES IN CANCER” (Feng Biosciences, Inc, priority 2021, published 2024).

Holding throughout (format): in vivo, human
For assay [1], the system named is locally advanced or metastatic gastric cancer. As to the kind of experiment: First-line clinical trial of chemotherapy, immune checkpoint inhibitor and navicixizumab, outcome by TME phenotype. The protocol: A clinical trial is run to determine whether locally advanced or metastatic gastric cancer tumor microenvironment phenotypes correlate to clinical responses when patients are treated with chemotherapy, an immune checkpoint inhibitor, and Navicixizumab in the first-line setting. The analysis includes samples from 120 patients across 2 treatment arms (60 patients in each arm). Patients are randomized to receive either (i) chemotherapy and an immune checkpoint inhibitor or (ii) chemotherapy, an immune checkpoint inhibitor and Navicixizumab. RNA gene signatures are analyzed from tumor samples acquired before any treatments and TME phenotypes are determined. Patients are followed for clinical response, progression-free survival, and overall survival.
Gastric cancer patients are randomized to receiving a regimen of chemotherapy (e.g., capecitabine, 5-FU, cisplatin etc.) plus an immune checkpoint inhibitor (anti-PD-(L)1—e.g., an inhibitor to PD-1 or PD-L1) therapy, or a regimen of chemotherapy/immune checkpoint inhibitor/Navicixizumab. […] The correlation between each TME phenotype is tested against clinical outcome data. In immune active (IA), immune suppressed (IS) and angiogenic (A) patients the use of the regimen of chemotherapy/immune checkpoint inhibitor/Navicixizumab confers benefit in comparison to patients classified to the immune desert (ID) TME phenotype class as shown in the TABLE 26.

The subject of assay [2] is platinum-resistant or platinum-sensitive recurrent ovarian cancer. The experiment in a line: Clinical trial of PARP inhibitor and navicixizumab in PARP naive and PARP resistant cohorts, ORR by TME phenotype. The method, then: A clinical trial is run to determine whether ovarian cancer tumor microenvironment phenotypes correlate to clinical responses when patients are treated with a PARP inhibitor, and navicixizumab in PARP naïve patients or patients that previously progressed on PARP inhibitor. The analysis includes samples from two different cohorts (one consisting of PARP inhibitor naïve patients and one consisting of PARP resistant patients). 40 patients from each cohort are randomized to 2 different treatment arms (20 patients in each arm). Patients are randomized to receive either a PARP inhibitor in combination with navicixizumab or PARP inhibitor monotherapy (PARP naïve cohort) or PARP inhibitor in combination with navicixizumab or navicixizumab monotherapy (PARP resistant). RNA gene signatures are analyzed from tumor samples acquired before the treatments and TME phenotypes are determined. Patients are followed for clinical response.
Ovarian cancer patients are randomized to receiving a regimen of PARP inhibitor (Olaparib, Rucaparib, Niraparib, etc.) plus navicixizumab, PARP monotherapy (PARP naive) or Navicixizumab monotherapy. The combination of PARP inhibitor/Navicixizumab increases overall response rate in patients with recurrent ovarian cancer compared to navicixizumab alone in both the PARP naive and PARP resistant cohorts as shown in TABLE 35. […] Eighty (80) total patients are enrolled, 20 in each of the treatment groups across the two cohorts with equal representation across the 4 stromal phenotypes (5 in each phenotype per treatment group). The correlation between each TME phenotype is tested against clinical outcome data. In immune suppressed (IS), and angiogenic (A) patients the use of the regimen of PARPi/Navicixizumab confers benefit in comparison to patients classified to immune active (IA) and immune desert (ID) TME phenotype classes as shown in the TABLE 36.

Assay [3] concerns locally advanced/metastatic HER2-negative breast cancer. As to the kind of experiment: Second-line clinical trial of navicixizumab/chemotherapy or navicixizumab/PARP inhibitor, outcome by TME phenotype. Particulars: plus chemotherapy group. The protocol: A clinical trial is run to determine whether locally advanced/metastatic HER2-negative breast cancer tumor microenvironment phenotypes correlate to clinical responses when patients are treated with a combination of Navicixizumab/chemotherapy or Navicixizumab/PARP inhibitor in the second-line setting. […] Patients receive either Navicixizumab/chemotherapy (BRCA WT and hormone receptor-positive) or Navicixizumab/PARP inhibitor (BRCA mutant or triple-negative for ER/PR/HER2). RNA gene signatures are analyzed from tumor samples acquired before any treatments and TME phenotypes are determined. Patients are followed for clinical response and progression-free survival. […] BRCA WT/hormone receptor-positive/HER2-negative breast cancer patients receive a regimen of Navicixizumab plus chemotherapy (e.g., capecitabine, etc.). BRCA mutant or triple-negative for ER/PR/HER2 breast cancer patients receive a regimen of Navicixizumab plus a PARP inhibitor (e.g., Rucaparib, Olaparib, etc.). […] The correlation between each TME phenotype is tested against clinical outcome data. In biomarker positive tumors, represented by angiogenic (A) and immune suppressed (IS) phenotypes, the use of Navicixizumab combinations confers benefit in comparison to patients classified as biomarker negative, represented by immune active (IA) and immune desert (ID) TME phenotype classes as shown in the TABLE 27 and TABLE 28.

Assay [4] relates to castration-resistant metastatic prostate cancer. The experiment in a line: Third-line clinical trial of navicixizumab/chemotherapy or navicixizumab/PARP inhibitor, outcome by TME phenotype. Particulars: plus chemotherapy group. The protocol:
A clinical trial is run to determine whether castration-resistant metastatic prostate cancer tumor microenvironment phenotypes correlate to clinical responses when patients are treated with a combination of Navicixizumab/chemotherapy or Navicixizumab/PARP inhibitor in the third-line setting. […] Patients receive either Navicixizumab/chemotherapy (BRCA WT) or Navicixizumab/PARP inhibitor (BRCA mutant). RNA gene signatures are analyzed from tumor samples acquired before any treatments and TME phenotypes are determined. Patients are followed for clinical response, progression-free survival and overall survival. […] BRCA WT prostate cancer patients receive a regimen of Navicixizumab plus chemotherapy (e.g., docetaxel, cabazitaxel etc.). BRCA mutant prostate cancer patients receive a regimen of Navicixizumab plus a PARP inhibitor (e.g., Rucaparib, Olaparib, etc.). […] The correlation between each TME phenotype is tested against clinical outcome data. In tumors that are biomarker positive, represented by angiogenic (A) and immune suppressed (IS) phenotypes, the use of Navicixizumab combinations confers benefit in comparison to patients classified as biomarker negative, represented by immune active (IA) and immune desert (ID) TME phenotype classes as shown in the TABLE 29 and TABLE 30.

[5] abbreviates: PARP resistant cohort, n = 20 per treatment group.

B1: Chemo/Immune Checkpoint Inhibitor/Navicixizumab: regimen of chemotherapy, immune checkpoint inhibitor and navicixizumab (antibody, chains of the INN, looked up, V domains shown)
VH: QVQLVQSGAEVKKPGASVKISCKASGYSFTAYYIHWVKQAPGQGLEWIGYISNYNRATNYNQKFKGRVTFTTDTSTSTAYMELRSLRSDDTAVYYCARDYDYDVGMDYWGQGTLVTVSS
VL: DIVMTQSPDSLAVSLGERATISCRASESVDNYGISFMKWFQQKPGQPPKLLIYAASNQGSGVPDRFSGSGSGTDFTLTISSLQAEDVAVYYCQQSKEVPWTFGGGTKVEIK
VH2: QVQLVQSGAEVKKPGASVKVSCKASGYTFTNYWMHWVRQAPGQGLEWMGDINPSNGRTSYKEKFKRRVTLSVDKSSSTAYMELSSLRSEDTAVYFCTIHYDDKYYPLMDYWGQGTLVTVSS
VL2: B1 VL
modifications: with chemotherapy and checkpoint inhibitor
For the molecule B1, the “6 Month PFS (%)” value was determined as 66.7% in assay [1] (A (n = 15)); 73.3% in assay [1] (IA (n = 15)); 53.3% in assay [1] (ID (n = 15)); 73.3% in assay [1] (IS (n = 15)); 67% in assay [1] (whole treatment group (n = 60)). The “ORR (%)” value in assay [1] (A (n = 15)) is reported as 60.0%; in assay [1] (IA (n = 15)) it was 66.7%; in assay [1] (ID (n = 15)), 46.7%; in assay [1] (IS (n = 15)), 73.3%; in assay [1] (whole treatment group (n = 60)) it was 63%. Moreover, the “OS (months)” value came out at 15.4 months in assay [1] (A (n = 15)); 17.4 months in assay [1] (IA (n = 15)); 11.5 months in assay [1] (ID (n = 15)); 19.7 months in assay [1] (IS (n = 15)); 16 months in assay [1] (whole treatment group (n = 60)).

B2: Navixicizumab (antibody, chains of the INN, looked up, V domains shown)
VH: B1 VH
VL: B1 VL
VH2: B1 VH2
VL2: B1 VL
B2: in assay [2] (setting [5]), the “Overall response rate (ORR)” value is 25%.

B3: PARPi/Navicixumab (antibody, chains of the INN, looked up, V domains shown)
VH: B1 VH
VL: B1 VL
VH2: B1 VH2
VL2: B1 VL
modifications: with PARP inhibitor
As for B3, the “Overall response rate (ORR)” value in assay [2] (PARP naive cohort, TME phenotype A (n = 5)) is reported as 100; in assay [2] (PARP naive cohort, TME phenotype IA (n = 5)), 40; in assay [2] (PARP naive cohort, TME phenotype ID (n = 5)) it was 40; in assay [2] (PARP naive cohort, TME phenotype IS (n = 5)), 80; in assay [2] (PARP resistant cohort, TME phenotype A (n = 5)) it was 60; in assay [2] (PARP resistant cohort, TME phenotype IA (n = 5)) it was 20. For the same molecule, the “Overall response rate (ORR)” value in assay [2] (PARP resistant cohort, TME phenotype ID (n = 5)) turned out to be 20; in assay [2] (PARP resistant cohort, TME phenotype IS (n = 5)) it was 60.

B4: PARPi/Navicixizumab (antibody, chains of the INN, looked up, V domains shown)
VH: B1 VH
VL: B1 VL
VH2: B1 VH2
VL2: B1 VL
modifications: with PARP inhibitor
Consider B4, for which the “Overall response rate (ORR)” value in assay [2] (PARP naiive cohort, n = 20 per treatment group) came out at 65%; in assay [2] (setting [5]), 40%.

B5: Navicixizumab plus chemotherapy: navicixizumab plus chemotherapy (e.g., capecitabine in breast; docetaxel, cabazitaxel in prostate) (antibody, chains of the INN, looked up, V domains shown)
VH: B1 VH
VL: B1 VL
VH2: B1 VH2
VL2: B1 VL
modifications: plus chemotherapy
Turning to B5, the “ORR (%)” value in assay [3] (A (n = 15)) worked out at 60%; in assay [3] (Biomarker Negative (n = 30)) it was 20%; in assay [3] (Biomarker Positive (n = 30), BRCA WT, hormone receptor-positive), 63.4%; in assay [3] (IA (n = 15)) it was 26.7%; in assay [3] (ID (n = 15)), 13.3%; in assay [3] (IS (n = 15)), 66.7%. Besides, the “ORR (%)” value in assay [4] (A (n = 10)) stood at 54%; in assay [4] (Biomarker Negative (n = 20)), 34%; in assay [4] (Biomarker Positive (n = 20), BRCA WT), 56%; in assay [4] (IA (n = 10)) it was 37%; in assay [4] (ID (n = 10)), 31%; in assay [4] (IS (n = 10)), 58%. The “PFS (months)” value in assay [3] (A (n = 15)) is reported as 11.5 months; in assay [3] (Biomarker Negative (n = 30)) it was 5.7 months; in assay [3] (Biomarker Positive (n = 30)) it was 12.3 months; in assay [3] (IA (n = 15)), 6.0 months; in assay [3] (ID (n = 15)), 5.4 months; in assay [3] (IS (n = 15)) it was 13.1 months. Besides, the “PFS (months)” value is recorded as 13.5 months in assay [4] (A (n = 10)); 9.8 months in assay [4] (Biomarker Negative (n = 20)); 14.2 months in assay [4] (Biomarker Positive (n = 20)); 10.9 months in assay [4] (IA (n = 10)); 8.7 months in assay [4] (ID (n = 10)); 14.7 months in assay [4] (IS (n = 10)). Besides, the “OS (months)” value in assay [4] (A (n = 10)) is given as 19.0 months; in assay [4] (Biomarker Negative (n = 20)), 11.9 months; in assay [4] (Biomarker Positive (n = 20)), 20.1 months; in assay [4] (IA (n = 10)), 12.0 months; in assay [4] (ID (n = 10)), 11.8 months; in assay [4] (IS (n = 10)), 21.2 months.
